Legend:
[1] = molecular target: the molecule itself; assay: non-reducing SDS-PAGE with Coomassie staining + mass spectrometry of the bands
[2] = molecular target: the molecule itself; assay: non-reducing SDS-PAGE with immunoblot

| Protein | stoichiometry N [1] | stoichiometry N [2] |
| --- | --- | --- |
| FLAG-His-tagged full-length CRT_(Del52), purified (natural protein, human) EPAVYFKEQFLDGDGWTSRWIESKHKSDFGKFVLSSGKFYGDEEKDKGLQTSQDARFYALSASFEPFSNKGQTLVVQFTVKHEQNIDCGGGYVKLFPNSLDQTDMHGDSEYNIMFGPDICGPGTKKVHVIFNYKGKNVLINKDIRCKDDEFTHLYTLIVRPDNTYEVKIDNSQVESGSLEDDWDFLPPKKIKDPDASKPEDWDERAKIDDPTDSKPEDWDKPEHIPDPDAKKPEDWDEEMDGEWEPPVIQNPEYKGEWKPRQIDNPDYKGTWIHPEIDNPEYSPDPSIYAYDNFGVLGLDLWQVKSGTIFDNFLITNDEAYAEEFGNETWGVTKAAEKQMKDKQDEEQRTRRMMRTKMRMRRMRRTRRKMRRKMSPARPRTSCREACLQGWTEA | 2 |  |
| his-GB1-tagged C-domain of CRT_(Del52) (domain or fragment, human) MKDKQDEEQRTRRMMRTKMRMRRMRRTRRKMRRKMSPARPRTSCREACLQGWTEA |  | 2 |
